Assay results reported in patent US6534051.

Tests used:
[1] = target: cell-surface protein expressed on various human cancers (e.g., HeLa and Col-1 cells), antigen of antibody B6.2 (human); experiment: cell-based or functional assay
[2] = target: receptor of ecotropic murine leukemia virus (UniProt Q09143); experiment: cell-based or functional assay
Sequence of UniProt Q09143 (Q09143 whole entry): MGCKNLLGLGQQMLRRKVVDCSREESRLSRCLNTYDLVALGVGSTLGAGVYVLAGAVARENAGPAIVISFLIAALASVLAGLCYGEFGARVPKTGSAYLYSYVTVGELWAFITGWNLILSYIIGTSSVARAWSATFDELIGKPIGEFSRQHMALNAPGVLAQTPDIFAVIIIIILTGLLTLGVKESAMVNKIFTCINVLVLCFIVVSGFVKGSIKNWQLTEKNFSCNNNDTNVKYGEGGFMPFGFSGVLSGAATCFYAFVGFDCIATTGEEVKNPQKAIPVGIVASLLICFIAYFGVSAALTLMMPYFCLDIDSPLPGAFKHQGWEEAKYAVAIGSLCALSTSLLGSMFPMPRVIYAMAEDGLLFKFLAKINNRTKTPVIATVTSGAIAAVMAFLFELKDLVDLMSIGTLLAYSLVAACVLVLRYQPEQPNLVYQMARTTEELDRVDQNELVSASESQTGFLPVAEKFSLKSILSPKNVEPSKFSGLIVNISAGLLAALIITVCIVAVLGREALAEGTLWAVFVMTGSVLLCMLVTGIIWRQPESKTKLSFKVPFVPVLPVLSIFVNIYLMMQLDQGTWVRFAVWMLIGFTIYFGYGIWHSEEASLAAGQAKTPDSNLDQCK

Substance “TC25 targeting envelope: B6.2 single chain antibody fused to carboxy terminal part of the SNV envelope (same amount of SNV envelope as pTC5) (scFv)” has a Titer (CFU/ml) on COL-1, particles with TC25 + wt-env [1] of 55 CFU/ml, a Titer (CFU/ml) on HeLa, particles with TC25 + wt-env [1] of 100 CFU/ml and a Titer (CFU/ml) on HeLa, particles with TC25 alone [1] of 20 CFU/ml.

“TC26 targeting envelope: B6.2 single chain antibody fused to the SNV envelope at codon 168 (167 in the legend of FIG. 6) (scFv)” gave a Titer (CFU/ml) on COL-1, particles with TC26 + wt-env [1] of 45 CFU/ml, a Titer (CFU/ml) on HeLa, particles with TC26 + wt-env [1] of 90 CFU/ml and a Titer (CFU/ml) on HeLa, particles with TC26 alone [1] of 10 CFU/ml.

For “TC24 targeting envelope: B6.2 single chain antibody fused to carboxy terminal part of the SNV envelope (same amount of SNV envelope as pTC4) (scFv)”, the Titer (CFU/ml) on COL-1, particles with TC24 + wt-env [1] was 115 CFU/ml, the Titer (CFU/ml) on HeLa, particles with TC24 + wt-env [1] was 250 CFU/ml and the Titer (CFU/ml) on HeLa, particles with TC24 alone [1] was 5 CFU/ml.

Substance “SNV-MLV-chiD targeting envelope: almost complete SU peptide of ecotropic murine leukemia virus fused to carboxy terminal part of the SNV envelope (as in pTC5)” has a Virus titer (cfu/ml) on CHTG cells, particles with MLV-SNV-chiD + wt SNV [2] of 1000 cfu/ml.

Substance “SNV-MLV-chiC targeting envelope: almost complete SU peptide of ecotropic murine leukemia virus fused to carboxy terminal part of the SNV envelope (as in pTC4)” has a Virus titer (cfu/ml) on CHTG cells, particles with MLV-SNV-chiC + wt SNV [2] of 1000 cfu/ml.
